Data on four molecules can be found in patent US8992886B2, “Cyclic peptide analogues for non-invasive imaging of pancreatic beta-cells” (Board of Regents, the University of Texas System, priority 2009, dated 2015).

Ends that are not written are not given here.

The target in data set [1] is T1, GLP-1R (Homo sapiens, UniProt P43220). The experiment in a line: cAMP formation by radioimmunoassay in transfected HEK293 cells. Also on record: expressed in transfected cells; host or cells: HEK293. The settings on record: compared with GLP-1. In kind it is cell-based. How it is done: Twelve cyclic GLP-1 analogues containing lactam bridges in various regions (from the N- to C-terminal regions) were designed and synthesized. The cyclic peptides were prepared by following standard solid-phase peptide synthesis protocol with N-Fmoc/^tBu protecting group strategy. The side chains of a lysine and a glutamic acid that would form a lactam bridge were protected with allyl groups which were selectively removed by using Pd^0 catalyst and an allyl scavenger like N,N-dimethylbarbituric acid (29). The released free amine and carboxylic acid were coupled on resin using HBTU or BOP to form a cyclic peptide. […] In addition, cAMP formation by the peptides was determined by radioimmunoassay using the transfected HEK293 cells to examine agonistic activity. […] (SEQ ID No: 5) and […] R (SEQ ID No: 6).
For orientation: Cyclic AMP is a second messenger, typically raised through Gs and lowered through Gi signalling.
Target sequence in this assay (P43220 24-463): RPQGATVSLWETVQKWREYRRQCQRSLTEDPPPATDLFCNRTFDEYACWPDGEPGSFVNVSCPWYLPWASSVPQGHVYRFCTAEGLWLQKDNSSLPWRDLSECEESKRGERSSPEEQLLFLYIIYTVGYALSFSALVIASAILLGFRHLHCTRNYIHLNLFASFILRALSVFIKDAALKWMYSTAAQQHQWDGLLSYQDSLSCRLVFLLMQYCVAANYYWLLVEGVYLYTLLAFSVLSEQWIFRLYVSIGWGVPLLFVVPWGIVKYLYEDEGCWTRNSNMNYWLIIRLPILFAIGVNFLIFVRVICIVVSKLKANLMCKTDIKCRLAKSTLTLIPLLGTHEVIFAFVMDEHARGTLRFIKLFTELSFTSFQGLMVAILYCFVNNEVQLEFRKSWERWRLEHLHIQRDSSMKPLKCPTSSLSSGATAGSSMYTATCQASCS

Data set [2] deals with freshly isolated rat islets. The experiment in a line: Displacement binding assay of ^125I-labeled peptide on isolated islets. The settings on record: ^125I-labeled (at Tyr^19). The source says: (§1) This presumably resulted from the degradation of the peptide by DPP-IV since it has Ala at position 8. In order to overcome this problem, we have replaced the L-Ala with a D-Ala. Furthermore, due to high stomach uptake likely resulting from in vivo de-iodination of the ^125I-labeled peptide, a conventional metal chelator. […] The purified conjugates were labeled with either ^64Cu or ^111In in high radiochemical yields.

Data set [3] in a line: Tissue distribution of ^125I-labeled peptide in normal Sprague-Dawley rats. In kind it is in vivo.
From the text: as §1

Data set [4] has as its target T1, GLP-1R. The settings on record: DPP-IV degradation fragment; cited from earlier work.
Target sequence in this assay (P43220 24-463, species assumed): as the sequence (P43220 24-463) above
The target of data set [5] is T2, GLP-1R in pancreas (Mus musculus, UniProt O35659).
T2 sequence (O35659 22-463): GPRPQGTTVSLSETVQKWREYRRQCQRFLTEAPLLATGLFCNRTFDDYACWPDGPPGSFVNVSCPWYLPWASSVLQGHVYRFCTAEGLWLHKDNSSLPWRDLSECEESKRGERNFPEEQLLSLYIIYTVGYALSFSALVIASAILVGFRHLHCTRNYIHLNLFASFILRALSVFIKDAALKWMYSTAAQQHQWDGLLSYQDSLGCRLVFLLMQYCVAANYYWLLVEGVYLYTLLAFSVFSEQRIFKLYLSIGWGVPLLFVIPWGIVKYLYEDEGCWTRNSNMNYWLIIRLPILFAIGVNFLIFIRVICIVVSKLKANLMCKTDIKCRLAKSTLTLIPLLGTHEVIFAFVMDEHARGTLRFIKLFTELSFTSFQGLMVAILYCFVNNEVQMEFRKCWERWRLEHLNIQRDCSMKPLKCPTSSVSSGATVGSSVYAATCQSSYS
The experiment in a line: Dynamic PET/CT imaging of ^64Cu-labeled peptides in normal mice. The settings on record: ^64Cu labeled, normal mice, dynamic PET-CT. How it is done:
Dynamic PET/CT scans were performed on a Siemens Inveon PET-CT multimodality system using normal male BABL/c mice (n=3 per peptide). Post-PET biodistribution was performed to verify the imaging findings.
In addition, D-Ala^8 was also introduced to prevent the degradation by DPP-IV.
FIG. 9 are graphs that show a comparison of contrast in pancreatic, liver and kidney microPET scans. […] Quantitative analysis based on microPET/CT 0-60 min dynamic scans, animal model: Normal BABL/c mice at 6-8 wks.

In data set [6] the target is T1, GLP-1R. The data set can be described thus: cAMP accumulation in HEK293 cells stably expressing GLP-1R-GFP. In kind it is cell-based. Also on record: GFP; expressed in transfected cells; host or cells: HEK293. The source says: In all cases, reactions were stopped with 1.2 M trichloroacetic acid and cAMP was isolated by the two column chromatographic method.
Target sequence in this assay (P43220 24-463): as the sequence (P43220 24-463) above

As for “HAEGTFTSDESSYKEGQAAKEFIAWLVKGR (lactam (positions not given here); ends not checked; also: lactam bridge, positions not given here) [SEQ ID No: 5, cyclic GLP-1 analogue with a lactam bridge]”, the “receptor activation (cAMP formation)” value in data set [1] is recorded as “comparable or improved”. Besides, in data set [2], the “specific binding to isolated islets” value is listed as “appreciable specific binding”. Also, in data set [3], the “accumulation in kidneys and stomach” value was “high accumulation in kidneys and stomach”; the pancreas uptake result is “no significant pancreas uptake”.

As for GLP-1(9-36) amide, the “receptor affinity and biological activity” value in data set [4] was “lost receptor affinity and biological activity nearly completely”.

Turning to “HAEGTFTSDVSSYLEGQAAKEFIEWLVKG R (chain 1 HAEGTFTSDVSSYLEGQAAKEFIEWLVKGR; chain 2 HAEGTFTSDVSSYLEGQAAKEFIEWLVKGR; lactam (positions not given here); ends not checked; also: lactam bridge, positions not given here) [SEQ ID No: 6, cyclic GLP-1 analogue with a lactam bridge]”, the “receptor activation (cAMP formation)” value in data set [1] is recorded as “comparable or improved”.

In general, EC50 refers to the concentration that produces a half-maximal response. Low readings indicate higher potency in that assay, high ones lower potency in that assay. On to `CC[C@H](C)[C@H](NC(=O)[C@H](Cc1ccccc1)NC(=O)[C@H](CCC(=O)O)NC(=O)[C@H](CCCCN)NC(=O)[C@H](C)NC(=O)[C@H](C)NC(=O)[C@H](CCC(N)=O)NC(=O)[C@@H]1CCCCNC(=O)CC[C@H](NC(=O)[C@H](CO)NC(=O)[C@@H](NC(=O)[C@H](CC(=O)O)NC(=O)[C@H](CO)NC(=O)[C@@H](NC(=O)[C@H](Cc2ccccc2)NC(=O)[C@@H](NC(=O)CNC(=O)[C@H](CCC(=O)O)NC(=O)[C@@H](C)NC(=O)[C@@H](N)Cc2c[nH]cn2)[C@@H](C)O)[C@@H](C)O)C(C)C)C(=O)N[C@@H](Cc2ccc(O)cc2)C(=O)N[C@@H](CC(C)C)C(=O)N[C@@H](CCC(=O)O)C(=O)N1)C(=O)N[C@H]1CCC(=O)NCCCC[C@@H](C(=O)NCC(=O)N[C@@H](CCCNC(=N)N)C(=O)NCCCCCC(=O)N[C@@H](CSC2CC(=O)N(CCNC(=O)CN3CCN(CC(=O)O)CCN(CC(=O)O)CCN(CC(=O)O)CC3)C2=O)C(N)=O)NC(=O)[C@H](C(C)C)NC(=O)[C@H](CC(C)C)NC(=O)[C@H](Cc2c[nH]c3ccccc23)NC1=O` (stereo partly drawn) [EM2198, HXEGTFTSDVSEYLEKQAAKEFIEWLVKGR, wherein X is D-Ala], for which the pancreatic retention in data set [5] is recorded as > 30 min. The EC50 in data set [6] was ~1 nM.
